# Measured values from patent US20090291081A1 (AbbVie / Abbott, published 2009).
# Where a chain is given by its changes, count along the chain named.
# B1: ABT1-150 (other)
# VL: DIQMTQSPSSLSASVGDRVTITCRASQSISSYLNWYQQKPGKAPKLLIGGVSGLQSGVPSRFSGSGSGTDFTLTISSLQPEDFATYYCMQWWRWPSTFGQGTKVEIKRAAAEQKLISEED
# notes: VK dAb
# B2: ABT1-151 (other)
# VL: B1 VL with V51R, M89G, W92Y, W94H, S96A
# notes: VK dAb
# B3: ABT1-152 (other)
# VL: B1 VL with V51R, S76G, W92Y, W94A
# notes: VK dAb
# B4: ABT1-130 (other)
# VL: DIQMTQSPSSLSASVGDRVTITCRASQEIGLWLSWYQQKSGKAPKLLIYRHSSSQSGVPSRFSGSGSGTDFTLTISSLQPEDFATYYCQQTYKAPFTFGQGTKVEIKR
# notes: VK dAb
# B5: ABT1-132 (other)
# VL: DIQMTQSPSSLSASVGDRVTITCRASQNIATALLWYQQKPGKAPRLLIYDSSQLQSGVPSRFSGSGSGTDFTLTISSLQPEDFATYYCQQMYWVPFTFGQGTKVEIKR
# notes: VK dAb
# B6: ABT1-157 (other)
# VL: DIQMTQSPSSLSASVGDRVTITCRASQSISSYLNWYQQKPGKAPKLLIGGVSGLQSGVPSRFSGSGSGTDFTLTISSLQPEDFATYYCMQWSRPPRTFGQGTKVEIKR
# notes: VK dAb
# B7: ABT1-168 (other)
# VL: B6 VL with V51L, M89L, S92F, R93S, P94E, R96A
# notes: VK dAb
# B8: ABT1-171 (other)
# VL: B6 VL with V51R, S92F
# notes: VK dAb
# B9: ABT1-170 (other)
# VL: B6 VL with V51R, M89K, S92Y, P94Y, R96S
# notes: VK dAb
# B10: ABT1-166 (other)
# VL: B6 VL with V51L, M89G, S92A, P94A, R96M
# notes: VK dAb
# B11: ABT1-167 (other)
# VL: B6 VL with V51L, S92W, P94Y, R96P
# notes: VK dAb
# B12: ABT1-95-106 (other)
# VL: DIQMTQSPSSLSASVGDRVTITCRASQPIVRNLRWYQQKPGKAPKLLIYSSSYLERGVPSRFSGSGSGTDFTLTISSLQPEDFATYHCQQGYRWPVAFGQGTKVEIKR
# notes: VK dAb
# B13: ABT1-95-120 (other)
# VL: B12 VL with V30A, R56P, G91V, A97T
# notes: VK dAb
# B14: ABT1-95-123 (other)
# VL: B12 VL with R56P, R93A, A97T
# notes: VK dAb
# B15: ABT1-95-125 (other)
# VL: B12 VL with R56P, V96L, A97T
# notes: VK dAb
# B16: ABT1-131 (other)
# VL: DIQMTQSPSSLSASVGDRVTITCRASQRINGNLRWYQQKPGKAPKLLIYSVSQLQSGVPSRFSGSGSGTDFTLTISSLQPEDFATYYCQQGYDWPPTFGQGTKVETKR
# notes: VK dAb
# B17: ABT1-95-114 (other)
# VL: B12 VL with R56V, A97T
# notes: VK dAb
# B18: ABT1-95-110 (other)
# VL: B12 VL with R56A, A97T
# notes: VK dAb
# B19: ABT1-141-54 (other)
# VL: DIQMTQSPSSLSASVGDRVTITCRASQWIQKQLAWYQQKPGKAPKLLIYSSSHLQSGVPSRFSGSGSGTDFTLTISSLQPEDFATYYCQQHLRVPMTFGQGTKVEIKR
# notes: VK dAb
# B20: ABT1-95-130 (other)
# VL: B12 VL with R56P, H87Y, R93L, A97T
# notes: VK dAb
# B21: ABT1-95-151 (other)
# VL: B12 VL with S26G, R56P, A97T, G99D
# notes: VK dAb
# B22: ABT1-95-146 (other)
# VL: B12 VL with P28N, R56P, A97T
# notes: VK dAb
# B23: ABT1-95-147 (other)
# VL: B12 VL with R24W, P28G, R56P, A97T
# notes: VK dAb
# B24: ABT1-154 (other)
# VL: DIQMTQSPSSLSASVGDRVTITCRASTEIVRNLRWYQQKPGKAPKLLISGVSGLQSGVPSRFSGSGSGTDFTLTISSLQPEDFATYYCVQGYSWPVTFGQGTKVEIKR
# notes: VK dAb
# B25: ABT1-95-141 (other)
# VL: B12 VL with V30L, R56P, A97T
# notes: VK dAb
# B26: ABT1-95-150 (other)
# VL: B12 VL with P28H, R56P, A97T
# notes: VK dAb
# B27: ABT1-95-153 (other)
# VL: B12 VL with V30I, R56P, D70G, A97T
# notes: VK dAb
# B28: ABT1-95-156 (other)
# VL: B12 VL with Y49A, R56P, Q89L, A97T
# notes: VK dAb
# B29: ABT1-95-126 (other)
# VL: B12 VL with R56P, V96S, A97T
# notes: VK dAb
# B30: ABT1-95-124 (other)
# VL: B12 VL with R56P, R93M, A97T
# notes: VK dAb
# B31: ABT1-95-157 (other)
# VL: B12 VL with Y49T, R56P, T69A, A97T
# notes: VK dAb
# B32: ABT1-95-155 (other)
# VL: B12 VL with Y49T, R56P, F83S, A97T
# notes: VK dAb
# B33: ABT1-95-108 (other)
# VL: B12 VL with R56E, A97T
# notes: VK dAb
# B34: ABT1-160 (other)
# VL: B24 VL with K45N, S49W, V51G, G53T, W94L
# notes: VK dAb
# B35: ABT1-95-152 (other)
# VL: B12 VL with S26G, V30P, R56P, A97T
# notes: VK dAb
# B36: ABT1-95-143 (other)
# VL: B12 VL with Y49T, R56P, A97T
# notes: VK dAb
# B37: ABT1-141-10 (other)
# VL: B19 VL with H53Y, H91S, M96F
# notes: VK dAb
# B38: ABT1-95-154 (other)
# VL: B12 VL with Y49S, R56P, A97T
# notes: VK dAb
# B39: ABT1-95-129 (other)
# VL: B12 VL with R56P, Q79H, F83L, A97T
# notes: VK dAb
# B40: ABT1-95-144 (other)
# VL: B12 VL with E55S, R56P, A97T
# notes: VK dAb
# B41: ABT1-141-35 (other)
# VL: B19 VL with S51A, H53W
# notes: VK dAb
# B42: ABT1-95-158 (other)
# VL: B12 VL with Y49F, R56P, A97T
# notes: VK dAb
# B43: ABT1-95-145 (other)
# VL: B12 VL with R18H, E55V, R56P, A97T
# notes: VK dAb
# B44: ABT1-95-159 (other)
# VL: B12 VL with V30A, R56P, G91V, A97T
# notes: VK dAb
# B45: ABT1-95-140 (other)
# VL: B12 VL with P28G, R56P, A97T
# notes: VK dAb
# B46: ABT1-95-112 (other)
# VL: B12 VL with R56N, A97T
# notes: VK dAb
# B47: ABT1-95-142 (other)
# VL: B12 VL with V30T, R56P, A97T
# notes: VK dAb
# B48: ABT1-95-127 (other)
# VL: B12 VL with R56P, S76G, V96I, A97T
# notes: VK dAb
# B49: ABT1-95-128 (other)
# VL: B12 VL with R56P, V96G, A97T
# notes: VK dAb
# B50: ABT1-141-27 (other)
# VL: B19 VL with H53Y, H91G, V94Q
# notes: VK dAb
# B51: ABT1-95-111 (other)
# VL: B12 VL with R56D, A97T
# notes: VK dAb
# B52: ABT1-139 (other)
# VH: EVQLLESGGGLVQPGGSLRLSCAASGFTFSDYTMIWVRQAPGKGLEWVSSISARGWGTYYADSVKGRFTISRDNSKNTLYLQMNSLRAEDTAVYYCAKGSPQLVLPFDYWGQGTLVTVSS
# notes: VH dAb
# B53: ABT1-123 (other)
# VL: DIQMTQSPSSLSASVGDRVTITCRASQSIWTELKWYQQKPGKAPKLLIYGASLLQSGVPSRFSGSGSGTDFTLTISSLQPEDFATYYCQQFAYHPHTFGQGTKVEIKR
# notes: VK dAb
# B54: ABT1-137 (other)
# VH: EVQLLESGGGLVQPGGSLRLSCAASGFTFERYWMAWVRQAPGKGLEWVSNINLTGSATYYADSVKGRFTISRDNSKNTLYLQMNSLRAEDTAVYYCAKGAFQFDYWGQGTLVTVSS
# notes: VH dAb
# Target: T1, human IL-1α (human, UniProt P01583 113-271)
# T1 construct: also called IL-1alpha; hIL-1α
# T1 sequence (looked up): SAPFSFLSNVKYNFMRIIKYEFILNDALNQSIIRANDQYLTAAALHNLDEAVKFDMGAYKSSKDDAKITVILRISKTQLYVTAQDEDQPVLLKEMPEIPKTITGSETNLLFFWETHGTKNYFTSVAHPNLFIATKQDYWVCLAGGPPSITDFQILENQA
# Assay: Table 62 IC50; RBA presumed
row,Binder,IC50 [nM]
1,B1,150
2,B2,200
3,B3,300
4,B4,300
5,B5,300
6,B6,300
7,B7,> 1000
8,B8,> 1000
9,B9,> 1000
10,B10,> 1000
11,B11,> 1000
12,B12,0.1
13,B13,0.1
14,B14,0.1
15,B15,0.2
16,B16,80
17,B17,0.2
18,B18,0.1
19,B19,3
20,B20,> 1
21,B21,0.2
22,B22,0.8
23,B23,0.2
24,B24,> 1000
25,B25,1
26,B26,0.2
27,B27,0.5

row,Binder,IC50 [nM]
1,B28,10
2,B29,0.8
3,B30,0.2
4,B31,10
5,B32,10
6,B33,0.5
7,B34,300
8,B35,0.8
9,B36,10
10,B37,30
11,B38,> 10
12,B39,> 10
13,B40,0.5
14,B41,10
15,B42,0.5
16,B43,0.8
17,B44,0.1
18,B45,0.2
19,B46,0.1
20,B47,0.5
21,B48,0.1
22,B49,> 1
23,B50,20
24,B51,< 0.1
25,B52,80
26,B53,> 500
27,B54,200
